Results as given in PMC6274577 (2016).
Where “and” joins values, the source holds several entries; their conditions need not be identical. Equal entries are not always repeated. Blank lines part the entries; values can stand above or below the molecule they belong to.

What was measured:
[1] = molecular target: sIL-11Rα ECD (Homo sapiens) (UniProt Q14626); experiment: SPR; details: cited from earlier work
IL-11Rα (Mus musculus) = IL-11Rα (Mus musculus) (UniProt Q64385); experiment: cell binding; details: cited from earlier work
Chain of IL-11Rα (Mus musculus) (Q64385 24-372): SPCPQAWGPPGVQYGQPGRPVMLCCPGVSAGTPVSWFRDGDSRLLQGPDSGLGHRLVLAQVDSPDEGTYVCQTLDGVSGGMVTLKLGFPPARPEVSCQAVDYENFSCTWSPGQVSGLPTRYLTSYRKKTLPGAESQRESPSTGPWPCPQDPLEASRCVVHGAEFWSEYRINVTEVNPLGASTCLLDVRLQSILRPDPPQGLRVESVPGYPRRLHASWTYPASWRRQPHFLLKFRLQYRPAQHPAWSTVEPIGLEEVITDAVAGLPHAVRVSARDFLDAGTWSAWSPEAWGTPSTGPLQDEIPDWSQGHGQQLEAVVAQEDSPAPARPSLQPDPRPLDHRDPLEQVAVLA

[2] = molecular target: recombinant extracellular domain of human interleukin-11 receptor subunit α (M1-V363) with a fused polyhistidine tag at the C-terminus (human) (UniProt Q14626)
[3] = molecular target: macaque recombinant interleukin-11 (rIL-11), Macaca fascicularis, mature protein lacking Pro1 (Macaca fascicularis) (UniProt P20808); experiment: SPR; biotinylated rIL-11 immobilised on NeutrAvidin NLC sensor chip (up to 2000 RU); 5-80 nM sIL-11Rα as analyte; 25 °C; PBS, 0.05% TWEEN 20, pH 7.4; heterogeneous ligand model (two ligand populations)
[4] = molecular target: murine recombinant interleukin-11 (rIL-11), Mus musculus, mature protein lacking Pro1 (Mus musculus) (UniProt P47873); experiment: as above
sIL-11Rα ECD = molecular target: T1, sIL-11Rα ECD (Homo sapiens, UniProt Q14626); experiment: SPR
T1 chain: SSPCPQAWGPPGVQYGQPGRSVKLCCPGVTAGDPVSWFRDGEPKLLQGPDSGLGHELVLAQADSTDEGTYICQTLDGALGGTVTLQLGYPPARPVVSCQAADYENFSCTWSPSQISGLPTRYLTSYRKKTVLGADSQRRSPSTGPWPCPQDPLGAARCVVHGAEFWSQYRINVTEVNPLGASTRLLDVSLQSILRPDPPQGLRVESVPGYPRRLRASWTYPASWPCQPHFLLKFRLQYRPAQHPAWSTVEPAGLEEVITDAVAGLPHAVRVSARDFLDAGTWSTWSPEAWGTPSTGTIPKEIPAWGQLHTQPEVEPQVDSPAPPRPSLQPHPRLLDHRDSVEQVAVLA

Molecule: IL-11 (from UniProt P20809)
- Kd [1]: 21.9 nM and 7 nM

Molecule: IL-11 (from UniProt P47873)
- Kd (IL-11Rα (Mus musculus)): 10 nM

- EC50 of STAT3 activation (SEAP secretion, QUANTI-Blue assay) in HEK-Blue IL-6 cells stably transfected with human IL-11Rα gene [2]: 0.084 nM
Molecule: murine recombinant interleukin-11 (rIL-11), Mus musculus, mature protein lacking Pro1 (from UniProt P47873 23-199) (ligand)

- EC50 of STAT3 activation (SEAP secretion, QUANTI-Blue assay) in HEK-Blue IL-6 cells stably transfected with human IL-11Rα gene [2]: 0.006 nM
Molecule: macaque recombinant interleukin-11 (rIL-11), Macaca fascicularis, mature protein lacking Pro1 (from UniProt P20808 23-199) (ligand)

- Kd1 (KD, ligand population 1) [3]: 4.2 nM
- Kd2 (KD, ligand population 2) [3]: 8.9 nM
- kd1 (koff, ligand population 1) [3]: 0.000815 s⁻¹
- kd2 (koff, ligand population 2) [3]: 0.0038 s⁻¹
- Kd1 (KD, ligand population 1) [4]: 2.2 nM
- Kd2 (KD, ligand population 2) [4]: 14.6 nM
- kd1 (koff, ligand population 1) [4]: 0.0007 s⁻¹
- kd2 (koff, ligand population 2) [4]: 0.0061 s⁻¹
B1: recombinant extracellular domain of human interleukin-11 receptor subunit α (M1-V363) with a fused polyhistidine tag at the C-terminus (receptor)
chain: SSPCPQAWGPPGVQYGQPGRSVKLCCPGVTAGDPVSWFRDGEPKLLQGPDSGLGHELVLAQADSTDEGTYICQTLDGALGGTVTLQLGYPPARPVVSCQAADYENFSCTWSPSQISGLPTRYLTSYRKKTVLGADSQRRSPSTGPWPCPQDPLGAARCVVHGAEFWSQYRINVTEVNPLGASTRLLDVSLQSILRPDPPQGLRVESVPGYPRRLRASWTYPASWPCQPHFLLKFRLQYRPAQHPAWSTVEPAGLEEVITDAVAGLPHAVRVSARDFLDAGTWSTWSPEAWGTPSTGTIPKEIPAWGQLHTQPEVEPQVDSPAPPRPSLQPHPRLLDHRDSV

- Kd (sIL-11Rα ECD): 8.9 nM and 4.2 nM
B2: IL-11 (protein)
chain: PGPPPGSPRASPDPRAELDSTVLLTRSLLEDTRQLTIQLKDKFPADGDHNLDSLPTLAMSAGALGALQLPSVLTRLRADLLSYLRHVQWLRRAMGSSLKTLEPELGTLQTRLDRLLRRLQLLMSRLALPQLPPDPPAPPLAPPSSTWGGIRAAHAILGGLHLTLDWAVRGLLLLKTRL
